Data on 32 sequences can be found in the supplement of paper PMC9170038.

The data set deals with MS2 coat protein. The experiment in a line: apparent KD of MS2 coat protein; designed switch direction (-1 OFF switch, 1 ON switch): -1; higher = weaker reporter binding. The essentials:
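Stalled E. coli RNA polymerase transcribed designed RNA switches on Illumina chips, which were then titrated with SNAP-549-labelled MS2 coat protein, doubling from 0.7 or 1.5 nM to 3 µM. Steps lasted from 0.8–1.5 h at the lowest concentration to 10–20 min at the highest. The apparent KD is each design's median over clusters of curve-fitted normalised fluorescence.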

Where [1] appears, read: Eterna round: R95, input ligand: FMN 200 uM.
Where [2] appears, read: Eterna round: R95, input ligand: microRNA oligo, concentration not stated.
Setting [3] is: Eterna round: R95, input ligand: none.

As to “GAAAAGUGAGGAUAUGGUAAAAGAAGAAGAAGAAGAAAACUCCAGAAGGCACAUGAGGAUCACCCAUGUGAAAG [salish99_ex4_r3_008] (puzzle: Exclusion 4)”, the “apparent KD of MS2 coat protein” value runs as follows: under setting [1], 17 nM; under setting [2], 17.1 nM; under setting [3], 16.5 nM.
Turning to “GAAACCAGAGGAUAUGCGAAUAAAUAAAACUUUUUUUUUUAACAUGAGGAUCACCCAUGUAGAAGGCUGCAAAU [Ex2 #34] (Eterna round: R97, puzzle: Exclusion 2)”, the “apparent KD of MS2 coat protein” value amounted to 42.2 nM (input ligand: FMN 200 uM) and 32.7 nM (input ligand: none).
Turning to “GAAUAGGCAGGAUAUACAUGAGGAUCACCCAUGUGCAACCGAAAGGAACGUCCGAAAGGUAGAAGGGCCUAAAC [ChP 13.04.2015 #9] (puzzle: Exclusion 3)”, the “apparent KD of MS2 coat protein” value by setting is: under setting [1], 73.7 nM; under setting [2], 17.9 nM; under setting [3], 19.6 nM.
In the case of “GAAUAGGUAGGAUAUACGAAAAAAAAGGGUAGAAAAAAAACACAUGAGGAUCACCCAUGUAGAAGGACCAAAAG [salish99_ex2_r3_089] (puzzle: Exclusion 2)”, the “apparent KD of MS2 coat protein” value runs as follows: under setting [1], 68.6 nM; under setting [2], 31.6 nM; under setting [3], 29.6 nM.
In the same order, the values of “GAAUAUAAGCAAAGAUCCUACAUGAGGAUCACCCAUGUGCUCGUCUUAUAAAGUACUAUCACGAAAGUGAUAGUACA [Mat - Sensor v3 - turn-off var 1 - Eli Mod - D82] (puzzle: Sensor v3, turn-off variant 1)” are 89.9 nM, 25.1 nM and 135 nM.
In the case of “GAAUGAGAGCAGGAUAUCUUAAAAAUGUAUAAAAGAGAAGGGCUCACAUGAGGAUCACCCAUGUGGUCCUAGAU [jl-ex6-4.69 jandersonlee mod] (Eterna round: R97, puzzle: Exclusion 6)”, the “apparent KD of MS2 coat protein” value came to 572 nM (input ligand: FMN 200 uM) and 40.5 nM (input ligand: none).
For “GAAUGAGAGCAGGAUAUCUUAUAAAUGUAUGAAAGAGAAGGGCUCACAUGAGGAUCACCCAUGUGGUCCUAGAU [jl-ex6-4.76 jandersonlee mod] (Eterna round: R97, puzzle: Exclusion 6)”, the “apparent KD of MS2 coat protein” value (input ligand: FMN 200 uM) is 645 nM and the “apparent KD of MS2 coat protein” value (input ligand: none) stood at 35.2 nM.
For “GACAAAGGAGGAUAUACAAUGUCCUGGUCUAACCCGAUGGCACAUGAGGAUCACCCAUGUAGAAGGCCUUUGCG [Eternabot (L1) Solution 4] (Eterna round: R97, puzzle: Exclusion 2)”, the “apparent KD of MS2 coat protein” value is, setting by setting: (input ligand: FMN 200 uM) 39 nM; (input ligand: none) 17.6 nM.
Regarding “GACAAGGGAGGAUAUGCACAAGGGAUAUCUGACAUGCCGAUACAUGAGGAUCACCCAUGUAGAAGGCCCGAAUA [Oneser] (puzzle: Exclusion 2)”, the “apparent KD of MS2 coat protein” value under setting [2] came out at 12.5 nM.
Regarding “GACAGGGCAGGAUAUCGAAUUCCUCACAUGAGGAUCACCCAUGUUCAGUCGAAAGACUGACGAGAAGGGCCGUGUC [Omei Ex5 E1] (Eterna round: R97, puzzle: Exclusion 5)”, the “apparent KD of MS2 coat protein” value (input ligand: FMN 200 uM) came out at 1020 nM and the “apparent KD of MS2 coat protein” value (input ligand: none) was determined as 2290 nM.
As for “GACAGGGCAGGAUAUCGAGAUCCGCACAUGAGGAUCACCCAUGUUCGGUCGAAAGACCGACGAGAAGGGCCGUGUC [Omei Ex5 E5] (Eterna round: R97, puzzle: Exclusion 5)”, the “apparent KD of MS2 coat protein” value runs as follows: (input ligand: FMN 200 uM) 651 nM; (input ligand: none) 869 nM.
Consider “GACCCACAUGAGGAUCACCCAUGUCAGGAUAUGCAGUUGGAUGCGUCAGAUUUCCAUAGCAGAAGGGAUCUGGC [Eternabot (Original) Solution 14] (Eterna round: R97, puzzle: Exclusion 1)”, for which the “apparent KD of MS2 coat protein” value worked out at 16.5 nM (input ligand: FMN 200 uM) and 18.2 nM (input ligand: none).
For the sequence “GACGCUAAAGGAUAUACAUGAGGAUCACCCAUGUUGAGGAAGGUUAGAUGAGGAGUAAGUAGAAGGUUAGGCGA [JR_Exclu3_Sub092] (puzzle: Exclusion 3)”, the “apparent KD of MS2 coat protein” value under setting [2] came out at 33.6 nM.
Turning to “GACUAGGGAGGAUAUAUUUACAGUGUACCUCGGGUGAUCGCACUUGAGGAUCACCCAAGUAGAAGGCUCGAGGG [EX2 #27] (Eterna round: R97, puzzle: Exclusion 2)”, the “apparent KD of MS2 coat protein” value is, setting by setting: (input ligand: FMN 200 uM) 30 nM; (input ligand: none) 35.9 nM.
The corresponding values for “GACUAGUGAGGAUAUACUUGCAGUGUACCUCGGGUGAUCUCACUUGAGGAUCACCCAAGUAGAAGGCGCGAGGG [EX2 #23] (Eterna round: R97, puzzle: Exclusion 2)” are 13.1 nM and 18.3 nM.
The corresponding values for “GACUAUUCGUAGGAUAUACUACUUAGCUAUGGAGUAGAAGGACGAACAUGAGGAUCACCCAUGUGGGACCCGGG [Eternabot (L2) Solution 31] (Eterna round: R97, puzzle: Exclusion 6)” are 125 nM and 81.2 nM.
As to “GACUGCUGAGGAUAUACAUGAGGAUCACCCAUGUGCUUCAGUAUCGAAAGAUGCAUGGGUAGAAGGUGGUAGUC [LRO-Excl3-09] (puzzle: Exclusion 3)”, the “apparent KD of MS2 coat protein” value under setting [2] turned out to be 80.1 nM.
In the case of “GAGAAACAUGAGGAUCACCCAUGUGAGGAUAUGUGAGACUAAAGCGCGCAGGCUAAGGACAGAAGGCACAAGGA [Excls1-Ia] (puzzle: Exclusion 1)”, the “apparent KD of MS2 coat protein” value is 57.5 nM under setting [1], 42.6 nM under setting [2] and 53 nM under setting [3].
In the same order, the values of “GAGAAAGCAAGCAAGUGAAACAUGAGGAUCACCCAUGUCCUCAUUUGCUCGUCUUAUAAAAGCUAUCGAAAGAUAGC [Mat - Sensor v3 - turn-off var 1 - Eli Mod - D48] (puzzle: Sensor v3, turn-off variant 1)” are 13.2 nM, 139 nM and 10.3 nM.
In the same order, the values of “GAGAAGGUAGGAUAUACGAAGAAAGAGGGUAGUAAUAAUACACAUGAGGAUCACCCAUGUAGAAGGACCAAGAG [Mat - Exclusion 2 - Mod of my Tesla design - D45] (puzzle: Exclusion 2)” are 35.9 nM, 24.7 nM and 21.7 nM.
As for “GAGAAGGUAGGAUAUACGAAUAAAUAGGGUAGGAAGAAGACACAUGAGGAUCACCCAUGUAGAAGGACCAAGAU [Mat - Exclusion 2 - Mod of my Tesla design - D35] (puzzle: Exclusion 2)”, the “apparent KD of MS2 coat protein” value under setting [2] came out at 18.1 nM.
“GAGAGGUCAGGAUAUACGGAGAGAGGGAGUUGGUGAGGGUAACAUGAGGAUCACCCAUGUAGAAGGGACUAAGG [JR_Exclu2_Sub077] (puzzle: Exclusion 2)”: the “apparent KD of MS2 coat protein” value under setting [2] stood at 22.8 nM.
On to “GAGCCACAUGAGGAUCACCCAUGUGAGGAUAUCAUGCUUCGUAGUAAACUACGAAGUGUGAGAAGGCACAAUGG [Omei Ex1 C5] (Eterna round: R97, puzzle: Exclusion 1)”, for which the “apparent KD of MS2 coat protein” value was 233 nM (input ligand: FMN 200 uM) and 99.7 nM (input ligand: none).
For “GAGCCUAAUGUAGGAUAUCGAGGUCGGUGACGUCGAGAAGGACAUGAGGAUCACCCAUGUCGUAGCGGCGGGAACGCUGCUACG [first try -36 kcal] (Eterna round: R96, puzzle: Exclusion NG 1)”, the “apparent KD of MS2 coat protein” value is, setting by setting: (input ligand: FMN 200 uM) 82.9 nM; (input ligand: microRNA oligo, concentration not stated) 147 nM; (input ligand: none) 274 nM.
As to “GAGCUAUGAGGAUAUGCAUAGAUACGGAUUCGUGUAGUACUACAUGAGGAUCACCCAUGUAGAAGGCGUGGCAG [Mat - Exclusion 2 - Mod of JL - D76] (puzzle: Exclusion 2)”, under setting [2], the “apparent KD of MS2 coat protein” value was 13.9 nM.
Still for that read-out and setting: the value for “GAGGAACAUGAGGAUCACCCAUGUGAGGAUAUGCAUAGUGAGGUAGUAGACGUUUAUUGCAGAAGGUACACUGA [JR_Exclu1_Sub079] (puzzle: Exclusion 1)” was 25.6 nM.
As for “GAGGAGCAAGGAUAUACGAGGAUAGGGAAGUGAGGAGAGUGACAUGAGGAUCACCCAUGUAGAAGGUGCAAGGG [JR_Exclu2_Sub094] (puzzle: Exclusion 2)”, the “apparent KD of MS2 coat protein” value by setting is: under setting [1], 111 nM; under setting [2], 89.4 nM; under setting [3], 190 nM.
As to “GAGGAUAGAGGAUAUGCAUAGAUACGGAUUCGUGUAGUACUACAUGAGGAUCACCCAUGUAGAAGGCUGUCCUG [JL-ex2-2.01 mat747 mod] (puzzle: Exclusion 2)”, the “apparent KD of MS2 coat protein” value under setting [2] was determined as 12.9 nM.
In the case of “GAGGCAUGCUGAGGUCCACACAUGAGGAUCACCCAUGUAAUGACAAGCUUUUUACUCAUCUUAUCGCUAUCGCGUUC [Tiinarre] (puzzle: Sensor v3, turn-off variant 1)”, the “apparent KD of MS2 coat protein” value under setting [1] was 19.1 nM, the “apparent KD of MS2 coat protein” value under setting [2] came out at 66.6 nM and the “apparent KD of MS2 coat protein” value under setting [3] was 16.3 nM.
Take “GAGGCCAUAGGAUAUCUGUUACGGGACAUGAGGAUCACCCAUGUACUGGCAAGUCCUCGGAGAGAAGGAUGACUCU [Eternabot (L1) Solution 68] (Eterna round: R97, puzzle: Exclusion 5)”: the “apparent KD of MS2 coat protein” value is, setting by setting: (input ligand: FMN 200 uM) 21.9 nM; (input ligand: none) 18.3 nM.
The corresponding values for “GAGGUGUAAGGAUAUAGCUAUAGGCUAACCGGGACCCAUAGCUAGAAGGUACAUGAGGAUCACCCAUGUUUGCU [Eternabot (L1) Solution 99] (Eterna round: R97, puzzle: Exclusion 4)” are 34.9 nM and 22.6 nM.
With “GAGGUGUUAGGAUAUCGGAGAUGGAGACCAACGGGAUGAGCCGAGAAGGAACAUGAGGAUCACCCAUGUAGGUG [JR_Exclu4_Sub032] (puzzle: Exclusion 4)”, the “apparent KD of MS2 coat protein” value by setting is: under setting [1], 345 nM; under setting [2], 755 nM; under setting [3], 763 nM.
